Test results taken from the DeepSol protein solubility set.

Assay: soluble on expression in E. coli; label from the status in PepcDB or PDB records

Soluble on expression in E. coli, not soluble:
MSLSSDSGNSSGKTTIEWWNITTTEPAKKLWAQRAKEFEAAHPDVKIKIVTLENEAYKSKMTAQTASGKLPDIYHTWGGGVLEQQIDAGLVEDLTDRVSSWTDTYVPAALAAYRFDSRTYAVPFDIGAVGFWYNKALFKQAGIDTPPTTWSGFLDAVRSLKSAGITPIALAGKEKWPGMYYWAYLSMRVAGLDAMHKAATDADFTGDGFVKAGQHLKDLVALQPFQKGFLGAGYSTPTGEAAAMGNGKAAMELMGQWAPVVEKDAGKGLGKDLGFFSFPAVEGGKGALTEVFGGGGGHAVRKGAPEAAVEFLKFFGEKEFAGKLVKETGLIPVSKDARGALTDPNLTAVSDALNAATGFQLYLDQAYAPAVGQEINDSVAALVAGSKSPQQVTRSVTQVAKSEKSEGHHHHHH, MGSDKIHHHHHHMPLDLDTALSSHQPLSLNERKLLDILRRRGAITRATVSAEMDLAQQSVHRLIEELISRGLLRSGERVKNGRGQPSPRIELVNEAVYAIGVSINTDSAVVCVADLGCNVLEQVTLRTPPLSRNSTLDSLAKTIERMLQRNGIETDRVIGMGFAIAGFFLENRQINAPEPLRDWSLIDLQPVLEERFGMPVWLENNATTAAIGESLVGVGAWASNFIYLSFNFGFGAGVVINGKPYFGSHGNAGEITLYNDEESINRPALRYLLEELHQKGVQVDSIEDLRLRFDPNWPGVDTWLKRIQPTLDRLVNALAGLFDPQAVVFGGQLPAELGKRLIAATTFWGTHRYNSPPPRPRLLLSETNGDAAAIGAALVPLKERFFV, GPGSMASSSTADDHSAVAGIVASSASVCGSRDAAASPPTALPKLGSAKQQRTERAFLFDRYPSRKIALRLAYHGHVHDGLAKQKETDNTVEGLVCDALRRLRLIPEDGPHNFGRCGRTDKGVSALGNAFSLTARASCTGDAEPQLPPLDYCSMLNNVLPSTIRIVGCALVDDAFDARFSCVHRTYRYYFFHRGLNLAAMQEAAAFFLGTHNFRNFCKMDVVNVSNFVRTVFSVGLHPSEALPELISYLEIRANSFLYHQIRCIMEVLFLVGRGLEVPSVVQTLLELGDRKPTYPLADGTPLILWDCGFDNVQWQMSHCAFHAMEQELQDIGTALLIRATSATAMRSQLFRWYTGTADVFRKDTSEKDASGEDRSRAVVRRDPELRRLDGWSITGCDWTDPGTAGQMKARKRDLLYYLRTEAKNGQPLPTTTSCEEKTSQTAETIASGALAPVNYVPLLQRETERTYEEEVRELSGKKRARYEVNEAKKAAAAAAHKEVVSED, MEDKLVTLAILTYTKAQILKNVLENEGIETYIHNVNQIQPVVSSGVRLRIKESDLPRALKITESSTWLSESIVGEKTPKVDSKSNKILIPVDFSNYSMKACEFGFNLAKTENSEVILLHVYFTPIYASSLPYGDVFNYQIGDEESVKTIIQQVHSDLNALSDKIKEKVASGEFPDIKYSCILREGIPEEEILRYAKEQRPKVIIMGTRGKSQKDIDLIGSVTAEIIDRSRTAVLAIPENTPFKEFNEVKRIAFLTNFDQRDLIAFEAFFNTWKSFHFSVSLIHLAESKDTWNEIKLAGIKDYFQKQYPGLEIHYDVVMNDNLLKGLDKYIKDNQIDIITLTSYKRNIFARLFNPSIARKMIFHSDTPLLVING, MGHHHHHHSHMAALKEDRSYGLSCGRVSDGSKVSVFHVKLTDSALRAFESYRARQDSVSLRPSIRFQGSQGHISIPQPDCPAEARTFSFYLSNIGRDNPQGSFDCIQQYVSSHGEVHLDCLGSIQDKITVCATDDSYQKARQSMAQAEEETRSRSAIVIKAGGRYLGKKVQFRK, REVADTAYDRTLLASARAIADGLYEKDGTLRADVPYVALDTFAYDSAGRIFYQVNDIHGRMISGYENLPAAPADTLRTDDYPALAKFYDGVYQGVDVRVVSLLQPVSEPSMSGMAEIRVAETEGARERMARS, MGSDKIHHHHHHMFYYERVNQFDTIAVSVDSVDRRRIKGTIDLDGLKFIMYFDYTQDVDIDYDLAGMIMTMPVINYAYFAKRIKLNFPVSLSFLKLVKEFIRINNIETFINSIVRRRYEFFLKEYLPSDEEITQENAEGRTEVLADISDGDKKKLEVDDRKVIVLSSGGKESLLTFGILKEIGAVVYPVFFNESGAHWKTAKVAYDYFSSKYENVLRVWSNVDRFYSFVNRHLKILDQDEIRRKADSYPVQMFIFPVYIFSVLPYVIKYGIGNIALGDELDDPIYEEPYHGIKHYYGVYDQTNDFNLTLTSFLREYGIHCKVFSAVYPIFGTLVEKILVQRYNDLFRVQRSCHLCHYEGGDVKPCGTCSKCLGVLLFMLNAEADPTEAGYSIEHVKQLEDNVNSASMRLDPDELEYLKAKVFEGRRINSHIEGIHQLPGENSAFSLVPERFRDGVRSIVSKYSTGFYKFVGSEWVKID, MDRVIEDKELGRLVVRDNVRAKRLVFRTKADAIYISIPLGVTMREVKEAIEKLRPRLLDSRQKLVRPLIDLNYRIETEYFKLSLVSGKRERFLAHSELGEMRIICPPTADFTDSNLQDWLRKVIEEALRRNAKIILPPRLYMLSEKHRLPYESVQINSSRGRWGSCSSRKKINLSYFLVLLPKHLIDYVLLHELCHTCEMNHGDRFWNLLNGLTDGKALELREELKRYKTEILEHHHHHH

Soluble on expression in E. coli, soluble:
MGGSHHHHHHGMASGSPPTQPSPASDSGSGYVPGSVSAAFVTCPNEKVAKEIARAVVEKRLAACVNLIPQITSIYEWKGKIEEDSEVLMMIKTQSSLVPALTDFVRSVHPYEVAEVIALPVEQGNFPYLQWVRQVTESVSDSITVLP, MKIVVAKNIGFCFGVERAIRTVEELLDEGKKVVTDGEIVHNKQVMEQLTKKGLKVSSEMTDGEVFVVRAHGIPKDRLEELKKIFPEVVDLTCPIVSQLFKTAQRYAKERKVIVFGKEDHPEMVALRGYAPAIVTKVPFKLEEKKVVFLSQTTSSLEEYKEFVAAMIRMNEFEEAVFLNTICPVTVNREREVEELSKICDLSIVVGGKHSSNTGKLFRIASKHSKTIWIESPDELPADVVKYGTVCVFSGTSTPNSLIENVVRKLKEMEGKRDGTI, ARDTLFVNLTDATDSQSLKLSDFGNTVRYVPLETNEVCLIGNNPHIALLEDKIVIATKDQCFLFHKQTGKYICSIGHIGDDPSGYSSTNYWIDDAGLFYFFRAPDQLLKYNQKGEMTGKIQIPHIPAAPDFFAFSDSTIIAHCNSSIGLESSNSLLFLNSFGEKLDSIPNLLKSPSIPSPDNISSLSIIKRGAGFFGNLGRRGVMIIKDKEQGELLLPLYNPSLWSSENEVRFRETFTDTIYTIKNRKLYPYMVFHTDTDHSSANPLWYSNPQSIYVAYVLENTHSVFFQYVKNKQVYNGLYNKETQQTKFAKCQQFIVDDLTSEQELKVDLSALCSYKGEYGFILEAASIPDASQKQSDNKNENIPHWMSQLDEDANPVIAIVSDK, MSLAMSKVKSITRESWILSTFPEWGSWLNEEIEQEQVAPGTFAMWWLGCTGIWLKSEGGTNVCVDFWCGTGKQSHGNPLMKQGHQMQRMAGVKKLQPNLRTTPFVLDPFAIRQIDAVLATHDHNDHIDVNVAAAVMQNCADDVPFIGPKTCVDLWIGWGVPKERCIVVKPGDVVKVKDIEIHALDAFDRTALITLPADQKAAGVLPDGMDDRAVNYLFKTPGGSLYHSGDSHYSNYYAKHGNEHQIDVALGSYGENPRGITDKMTSADMLRMGEALNAKVVIPFHHDIWSNFQADPQEIRVLWEMKKDRLKYGFKPFIWQVGGKFTWPLDKDNFEYHYPRGFDDCFTIEPDLPFKSFLEGGSHHHHHH, MAITVKGLTNKLTRTQRRIAVVEFIFSLLFFLPKEAEVIQADFLEYDTKERQLNEWQKLIVKAFSENIFSFQKKIEEQQLKNQLEIQTKYNKISGKKIDLLTTAVVLCALSEQKAHNTDKPLLISEALLIMDHYSQGAEKKQTHALLDKLL, MTRIVVLGAGFAGLWAAIGAARKRDEIGAAGRDIEIRVVDRNPYHNIRVRNYEVDLSEVALPLGQLLDPIGVTHGLGEVEAIDPARREISLVTSDGEETLGYDRLVLAVGSEVTRPDIPGLADHAFDVDTYIAALRLEDHLVSLGRSVPSPGRSTVVVVGAGFTGIEVAAEMPDRLARAGITGSRCIILVDPNPTVGATIGAHARPVIETALSALDIETRLGARVASVEAAGVQLSSGEFIPAQTVIWCAGLRASRLAASLPGARDRLGRLLVDPFMRVADLPCVFAAGDVASSVVDGLHPTVMSCQFARPMGRFAGHNVVADLLGLPMLPLRIDWYVTVLDLGSWGALYTEGWDREVRTTGAAAKATKQTINRKRIYPPLNGSKDELFAAAAPTVQTPPPTYGARLEHHHHHH, MYKLNLDIQAFLANDWQQAPKVFKGAFPDFEDPIAADELAGLACEEEVSSRVVVTKGNDWEVISGPFEDYDRFGETHWQLLVQAVNHWYPESQPLVEAFRFLPDWRFDDLMVSFATPQGGVGPHIDNYDVFIIQGEGQRRWTVGPKGNYQRRGGVTTSPLIEDFEPIIDVVLEKGDVLYIPPGFPHQGETLTLALSYSMGYRAPSQQELAGQIADQLMDEDKGHKRFIAVDGAASHGTVSLAEQQGIMQLIRDLCNDTDNVVKVLGKLLSQNRFDLDIQEDESIDADALVEALNEGAVLMRIGGLKVLKMEGDSQARLFVAGESVIIEGASEEELIEVSNSVNVNAELAQLPHWQGFFVQMLQKGYFYLGED, SKKTVEFVDYVNPLMGTESTFAFSHGNTYPAVAVPWGMNFWSPQTGENGSGWMYTYTDSLMRGFRQTHQPSPWINDYGTFSIMPLAGELKMSHKERLVPFSHQQEKATPYNYSVTFNNGLQTSLSATSRGAVFEVSFPEKEDQYVVVDAYNGGSSITIEPEKRLVKGATRYNNGGVPDNFANYFMMEFSHPVIEYGTYNGDTLLHHQTDVAADYTCAYLKFDVPAGEKLTIRTASSFISPEQAAINFNREVADADVQLISGKAREQWNNYLGRVEAEGGTDEQLRTFYSCLYRTLLFPREFYEFDSQGNPVYYSPYDGNVHDGYMYTDNGFWDTFRAVHPLFTLLYPEVSERVTQSIINAYNESGFMPEWASPGHRGCMIGNNSVSLLVDAWMKGIQTVDAEKALEAMIHQTQARHAEIASVGRDGFEYYDKLGYVPYPEVPEATAKTLEYAYADWCIARFAESLGKQDIADQYYQKAPNYRNLYYPEHGFMWTKDAKGNWRDRFDATEWGGPFTEGSSWHWTWSVFHDPEGLSELMGGHEPMIARLDSMFVAPNTYNYGTYGFVIHEIAEMVALNMGQYAHGNQPVQHAIYLYDYIGQPWKTQYHLRNVMDKLYNSGSKGYCGDEDNGQTSAWYVFSAMGFYPVCPGMPEYAIGSPLFKKVTLHLPEGKNFVVSAADNAADRPYIRKALLNGQEFTRNYLTHDELKQGGELNLSMDSVPNQQRGTQPADFPYSYSK, MDQALLDGGYRCYTGEKIDVYFNTAICQHSGNCVRGNGKLFNLKRKPWIMPDEVDVATVVKVIDTCPSGALKYRHK, MSLTKLYYEDQYIKEFKGEIIEVKEIDGKFHVLLDQTAFFPGGGGQMGDLGLIDGIKVLDVYEEEGKVYHVLEKEPKKLKNLQCELDWERRFDGMQQHLGQHLLSGCFYDLFGANTCGFHLGKEISTVDIVGFLDEKTIREAEKEANRLIFENLEVKSYAPSKKELKKVKTRRALPKTDEEIRIVEIVGLDLNACCGVHPRNTRDLQVIKIRRWEKHKNATRIEYVAGNRAVSEGHHHHHH, MAHHHHHHMTVEDQVDHLLAPQRDGQENIQQRQEFNGFVHWGLLHGAHMVLEENQDTKRAHEFVNRYMRDIDLFEKWLEHPKVRAHIQKKFGIDMSAKFDKLMALTMAMYTRSKIQVYEDDPAGALKSLTASMSFITEGADLKKERHRKALGAVLVARGMIHCKLKSFHRADDDLTRALAFVKANRSATLYQLRAEAREALGHIDEARADEERAAQIWEEAEVITPGMDGAPRKFVT
